The supplement of paper PMC10126150
± gives the standard deviation of the averaged measurements.

These sequences were tested on ATP (assay: switch fluorescence ratio, 500 uM ATP over buffer (Cy3 cluster intensity, sum of 5 cycles each) (fold (ratio)); higher = stronger signal-on switching upon ATP binding; sequences stand for … in TCGTCGGCAGCGTCAGATGTGTATAAGAGACAGTTTTTTTTTTTTTTTTTTTTTTTTT…TC). Settings: aptamer strand: ATP DNA aptamer (quencher-CACCTGGGGGAGTATTGCGGAGGAAGG + anchor), 100 nM annealed; ATP concentration: 500 uM.
Method in brief: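 Five buffer/ATP imaging cycles were run on Cy3-labelled switching-strand clusters on a modified Illumina MiSeq flow-cell, with NaOH stripping and re-annealing between cycles. In each cycle, clusters annealed to 100 nM quencher-labelled ATP aptamer were imaged in selection buffer, then after 15 min with 500 uM ATP at 22 °C. Per cluster, the fluorescence ratio is summed target-cycle over summed buffer-cycle Cy3 intensity, averaged per switch-domain sequence. Only clusters within 100-1000 RFU were kept.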
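Further: ATP exposure 15 min at 22 °C before imaging.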

| Sequence | switch fluorescence ratio |
| --- | --- |
| CCTGCGCACG | 3.98 ± 0.93 |
| CCTGCTTGGT | 1.029 ± 0.0082 |
| CCTGCTTTGG | 1.07 ± 0.083 |
| CCTGGCGCCA | 1.006 ± 0.0021 |
| CCTGGGACCA | 0.975 ± 0.0064 |
| CCTGGGAGCA | 1.08 ± 0.057 |
| CCTGGGAGTG | 0.999 ± 0.035 |
| CCTGGGGATA | 1.04 ± 0.024 |
| CCTGGGGCGT | 1.06 ± 0.12 |
| CCTGGGGCTA | 1.25 ± 0.021 |
| CCTGGGGCTT | 1.03 ± 0.033 |
| CCTGGGGGGC | 1.09 ± 0.18 |
| CCTGGGGGTA | 1.04 ± 0.024 |
| CCTGGGGTAA | 1.09 ± 0.039 |
| CCTGGGGTGT | 1.34 ± 0.28 |
| CCTGGTACTG | 1.05 ± 0.015 |
| CCTGTAAGCT | 1.3 ± 0.077 |
| CCTGTAATTG | 1.03 ± 0.031 |
| CCTGTACGGA | 1.004 ± 0.0067 |
| CCTGTGTGAC | 1.344 ± 0.013 |
| CCTGTTTGAG | 1.04 ± 0.11 |
| CCTTACCTTG | 1.04 ± 0.041 |
| CCTTATTTTG | 1.05 ± 0.065 |
| CCTTCAGAGG | 1.12 ± 0.033 |
| CCTTCCGGGG | 2.07 ± 0.23 |

| Sequence | switch fluorescence ratio |
| --- | --- |
| CCTTCTCGTC | 1.34 ± 0.096 |
| CCTTGATCTG | 1.06 ± 0.02 |
| CCTTGCCCTT | 1.03 ± 0.014 |
| CCTTGGAACG | 1.03 ± 0.011 |
| CCTTGGCGCG | 0.995 ± 0.035 |
| CCTTGGCTTT | 1.53 ± 0.11 |
| CCTTTAGATG | 1.03 ± 0.04 |
| CCTTTAGGGG | 0.997 ± 0.037 |
| CCTTTATGGC | 0.947 ± 0.029 |
| CCTTTATTTA | 0.986 ± 0.026 |
| CCTTTGGAAT | 1.16 ± 0.031 |
| CCTTTTGGGC | 0.97636 ± 3.3e-05 |
| CCTTTTGTTA | 0.989 ± 0.02 |
| CCTTTTTGGT | 1.016 ± 0.01 |
| CCTTTTTTGG | 1.02 ± 0.021 |
| CCTTTTTTTG | 1.01 ± 0.024 |
| CGAAAAAAAA | 0.948 ± 0.062 |
| CGAAAAAAGA | 1.05 ± 0.12 |
| CGAAAAATAG | 0.985 ± 0.043 |
| CGAAAACGGT | 0.999 ± 0.048 |
| CGAAAACGTG | 0.976 ± 0.012 |
| CGAAAGATGA | 0.982 ± 0.019 |
| CGAAAGTAGC | 1.01 ± 0.013 |
| CGAAATCATC | 1.063 ± 0.0053 |
| CGAAATCGTG | 0.9964 ± 0.0047 |

| Sequence | switch fluorescence ratio |
| --- | --- |
| CGAAATGGGT | 1.03 ± 0.025 |
| CGAACAGCGC | 1.01 ± 0.019 |
| CGAACCTTGG | 0.998 ± 0.019 |
| CGAAGACGTA | 1.05 ± 0.06 |
| CGAAGATTTG | 1 ± 0.015 |
| CGAAGCAGGA | 2.4 ± 0.097 |
| CGAAGGATCT | 1.02 ± 0.019 |
| CGAAGGCTGG | 1.0003 ± 0.00038 |
| CGAAGGGATG | 0.982 ± 0.031 |
| CGAAGGGGGG | 1.03 ± 0.087 |
| CGAAGGGTCC | 0.959 ± 0.031 |
| CGAAGGGTGA | 1.06 ± 0.02 |
| CGAAGGGTGG | 0.993 ± 0.028 |
| CGAAGGTTTA | 0.9981 ± 0.0018 |
| CGAATCAAAC | 1.52 ± 0.032 |
| CGAATCTTGT | 1.01 ± 0.016 |
| CGAATCTTTT | 1.013 ± 0.0025 |
| CGAATGGAAC | 0.989 ± 0.017 |
| CGAATGGTCG | 1.041 ± 0.0095 |
| CGAATTAATT | 0.96152 ± 0.00065 |
| CGAATTACGT | 0.992 ± 0.016 |
| CGACAGGCAT | 1.63 ± 0.063 |
| CGACCACTTT | 1.04 ± 0.025 |
| CGACTAAAAG | 0.999 ± 0.042 |
| CGACTACCTT | 1.21 ± 0.016 |

| Sequence | switch fluorescence ratio |
| --- | --- |
| CGACTAGGTA | 1 ± 0.062 |
| CGACTGATTA | 0.991 ± 0.013 |
| CGACTTTTAT | 0.9818 ± 0.0046 |
| CGACTTTTGT | 0.967 ± 0.013 |
| CGAGAAGAGA | 1.01 ± 0.013 |
| CGAGAAGGTG | 1.24 ± 0.33 |
| CGAGACAGGG | 1 ± 0.036 |
| CGAGAGGGGA | 1.03 ± 0.02 |
| CGAGATATGT | 1.002 ± 0.0038 |
| CGAGATGGGT | 0.974 ± 0.028 |
| CGAGATGTTA | 0.993 ± 0.015 |
| CGAGCCGAGA | 1.003 ± 0.0095 |
| CGAGCGTAGG | 1.01 ± 0.043 |
| CGAGCTTTAG | 1.024 ± 0.0033 |
| CGAGGAGGGC | 0.974 ± 0.019 |
| CGAGGCAGCT | 1.16 ± 0.15 |
| CGAGGCCTGT | 1.02 ± 0.022 |
| CGAGGGCAGG | 1.08 ± 0.06 |
| CGAGGGCATG | 1.07 ± 0.045 |
| CGAGGGGAAC | 2.81 ± 2.5 |
| CGAGGGGATA | 1.04 ± 0.051 |
| CGAGGGGCTG | 1.03 ± 0.013 |
| CGAGGGTAAG | 1 ± 0.0022 |
| CGAGTAAAGA | 1.03 ± 0.028 |
| CGAGTAACGC | 1.03 ± 0.015 |
